Assay results: patent publication US20210063414A1, “METHODS FOR PREVENTING AND/OR TREATING BONE LOSS CONDITIONS BY MODULATING IRISIN” (Dana-Farber Cancer Institute, Inc., priority 2018, published 2021)

Experiments:
[1] = molecular target: T1, MLO-Y4 cell surface proteins (Mus musculus, UniProt E9Q0C6); assay: Crosslinking/co-immunoprecipitation/mass spectrometry (TMT quantitative proteomics) to identify irisin receptors; type: binding; details: co-precipitated protein Gm14569 (E9Q0C6_MOUSE)
T1 construct: endogenous in cells; host or cells: MLO-Y4
Experimental: (§1) MLO-Y4 cells were seeded on 30×150 mm type-I collagen coated dishes as described in cell culture experiment. At 60% cell density, medium was switched to FreeStyle™ 293 Expression medium. After 4 hours incubation, the cells were chilled on ice for 10 minutes, followed by treatment of 10 nM his-tag irisin or his-tag adipsin for 20 minutes. The cells were then incubated with 1.5 mM DTSSP for 30 minutes on ice to do cross-linking, after washing with 15 ml cold PBS twice. The cross-linking was quenched by addition of a final concentration of 20 mM Tris-pH 7.5. The cells were then harvested and homogenized in 1 ml RIPA buffer containing proteaseinhibitor cocktailand phosphatase-inhibitor cocktail. Whole-cell lysates were homogenized by 10 times passages through a 22G needle fitted to a 3 ml syringe. Homogenized samples were rotated gently in cold room for 20 minutes followed by 15,000×g centrifugation for 10 minutes. After addition of a final concentration of 10 mM imidazole, supernatants were incubated with 100 μl Ni-NTA agarose for 1 hour. After centrifugation at 500×g for 1 minute, the supernatants were aspirated and 1 ml cold RIPA buffer containing 10 mM imidazole were added to the agarose. After 10 minutes rotation in cold room, the supernatants were aspirated and 1 ml cold RIPA buffer containing 30 mM imidazole were added to the agarose. After repeating the washing 3 times, 0.8 ml RIPA buffer containing 250 mM imidazole was added and the agarose was gently rotated in a cold room for 20 minutes. After centrifugation at 1000×g for 2 minutes, the supernatants were transferred to 1.5 ml tube and incubated with 100 μl 0.2% sodium deoxycholate and 100 μl 10% trichloroacetic acid in ice for 1 hour. After centrifugation at 12,000×g for 10 minutes at 4° C., the supernatants were removed and 1 ml cold acetone was added to the pellets followed by vortexing for 10 seconds. After one more washing with cold acetone, the pellets were dried at 37° C., and 39 μl PBS and 13 μl 4×NuPAGE LDS were added to the pellets with a final concentration of 5 mM DTT. Solubilized proteins were incubated at 65° C. for 20 minutes followed by incubation with a final concentration of 14 mM iodoacetamide for 45 minutes in the dark. 38 μl samples were loaded to 4-12% gradient SDS-PAGE for separation followed by Coomassie Blue staining. The gels were submitted to quantitative proteomics.
(§2) For in-gel digestions, gels were stained with Coomassie Blue and were excised into 8 equal segments for control and irisin lanes. Gel pieces were destained and dehydrated with 100% acetonitrile, vacuumed dried, and digested in 25 mM HEPES (pH 8.5) with 500 ng sequencing grade trypsin (Promega) and incubated for an overnight at 37° C. (Shevchenko et al. (1996) Anal. Chem. 68:850-858). Digests were treated with 1% formic acid and purified using C18 Stage-Tips as previously described (Rappsilber et al. (2007) Nat. Protoc. 2:1896-1906). Peptides were eluted with 70% acetonitrile and 1% formic acid, then dried using a speedvac. Isobaric labeling of digested peptides was accomplished using 6-plex tandem mass tag (TMT) reagents (Thermo Fisher Scientific, Rockford, Ill.). Reagents, 5.0 mg, were dissolved in 252 μl acetonitrile (ACN) and 5 μl of the solution was added to the digested peptides dissolved in 25 μl of 200 mM HEPES, pH 8.5. After 1 hour at room temperature, the reaction was quenched by adding 1 μl of 5% hydroxylamine. Labeled peptides were combined and acidified prior to C18 Stage-Tips desalting.
(§3) All LC-MS/MS experiments were performed on an Orbitrap Fusion™ Lumos mass spectrometer (Thermo Fisher Scientific, San Jose, Calif., USA) coupled with a Proxeon EASY-nLC™ 1200 LC pump (Thermo Fisher Scientific). Peptides were separated on a 100 μm inner diameter microcapillary column packed with 35 cm of Accucore™ C18 resin (1.8 μm, 100 Å, Thermo Fisher Scientific). […]

[2] = molecular target: T2, MLO-Y4 cell surface proteins (Mus musculus, UniProt E9PW83); assay: as above; type: binding; details: co-precipitated protein Fam184a (E9PW83_MOUSE)
T2 construct: endogenous in cells; host or cells: MLO-Y4
T2 sequence (E9PW83 1-1143): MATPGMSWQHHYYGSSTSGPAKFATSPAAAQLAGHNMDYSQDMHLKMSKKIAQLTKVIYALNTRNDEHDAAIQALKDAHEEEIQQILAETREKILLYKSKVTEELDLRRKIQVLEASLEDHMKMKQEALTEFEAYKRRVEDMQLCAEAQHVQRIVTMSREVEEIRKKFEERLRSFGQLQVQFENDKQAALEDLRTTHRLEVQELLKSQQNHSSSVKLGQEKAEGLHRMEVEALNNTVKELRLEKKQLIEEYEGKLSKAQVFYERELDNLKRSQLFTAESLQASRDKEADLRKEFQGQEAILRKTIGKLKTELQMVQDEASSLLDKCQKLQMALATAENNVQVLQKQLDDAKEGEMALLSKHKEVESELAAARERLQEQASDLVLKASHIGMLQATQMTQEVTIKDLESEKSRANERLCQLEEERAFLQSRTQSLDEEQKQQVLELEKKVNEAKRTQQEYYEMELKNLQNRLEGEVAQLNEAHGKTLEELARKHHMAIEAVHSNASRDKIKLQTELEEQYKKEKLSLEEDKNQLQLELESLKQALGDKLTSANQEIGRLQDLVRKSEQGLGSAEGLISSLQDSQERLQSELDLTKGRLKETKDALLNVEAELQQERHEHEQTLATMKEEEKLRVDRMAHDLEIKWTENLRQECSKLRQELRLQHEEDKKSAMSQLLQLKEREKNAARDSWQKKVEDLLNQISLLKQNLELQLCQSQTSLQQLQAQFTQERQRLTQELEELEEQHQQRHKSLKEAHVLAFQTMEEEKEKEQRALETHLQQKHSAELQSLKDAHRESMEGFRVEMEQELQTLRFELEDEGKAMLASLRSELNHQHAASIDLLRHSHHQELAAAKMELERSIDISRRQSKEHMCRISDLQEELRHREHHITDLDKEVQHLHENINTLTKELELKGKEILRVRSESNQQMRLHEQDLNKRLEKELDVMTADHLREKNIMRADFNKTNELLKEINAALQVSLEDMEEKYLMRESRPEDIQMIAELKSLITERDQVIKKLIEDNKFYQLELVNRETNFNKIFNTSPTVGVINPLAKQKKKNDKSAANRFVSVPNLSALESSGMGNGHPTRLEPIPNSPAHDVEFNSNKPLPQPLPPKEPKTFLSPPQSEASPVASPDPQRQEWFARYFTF
Experimental: as §1, §2, §3

T1 sequence (E9Q0C6 whole entry): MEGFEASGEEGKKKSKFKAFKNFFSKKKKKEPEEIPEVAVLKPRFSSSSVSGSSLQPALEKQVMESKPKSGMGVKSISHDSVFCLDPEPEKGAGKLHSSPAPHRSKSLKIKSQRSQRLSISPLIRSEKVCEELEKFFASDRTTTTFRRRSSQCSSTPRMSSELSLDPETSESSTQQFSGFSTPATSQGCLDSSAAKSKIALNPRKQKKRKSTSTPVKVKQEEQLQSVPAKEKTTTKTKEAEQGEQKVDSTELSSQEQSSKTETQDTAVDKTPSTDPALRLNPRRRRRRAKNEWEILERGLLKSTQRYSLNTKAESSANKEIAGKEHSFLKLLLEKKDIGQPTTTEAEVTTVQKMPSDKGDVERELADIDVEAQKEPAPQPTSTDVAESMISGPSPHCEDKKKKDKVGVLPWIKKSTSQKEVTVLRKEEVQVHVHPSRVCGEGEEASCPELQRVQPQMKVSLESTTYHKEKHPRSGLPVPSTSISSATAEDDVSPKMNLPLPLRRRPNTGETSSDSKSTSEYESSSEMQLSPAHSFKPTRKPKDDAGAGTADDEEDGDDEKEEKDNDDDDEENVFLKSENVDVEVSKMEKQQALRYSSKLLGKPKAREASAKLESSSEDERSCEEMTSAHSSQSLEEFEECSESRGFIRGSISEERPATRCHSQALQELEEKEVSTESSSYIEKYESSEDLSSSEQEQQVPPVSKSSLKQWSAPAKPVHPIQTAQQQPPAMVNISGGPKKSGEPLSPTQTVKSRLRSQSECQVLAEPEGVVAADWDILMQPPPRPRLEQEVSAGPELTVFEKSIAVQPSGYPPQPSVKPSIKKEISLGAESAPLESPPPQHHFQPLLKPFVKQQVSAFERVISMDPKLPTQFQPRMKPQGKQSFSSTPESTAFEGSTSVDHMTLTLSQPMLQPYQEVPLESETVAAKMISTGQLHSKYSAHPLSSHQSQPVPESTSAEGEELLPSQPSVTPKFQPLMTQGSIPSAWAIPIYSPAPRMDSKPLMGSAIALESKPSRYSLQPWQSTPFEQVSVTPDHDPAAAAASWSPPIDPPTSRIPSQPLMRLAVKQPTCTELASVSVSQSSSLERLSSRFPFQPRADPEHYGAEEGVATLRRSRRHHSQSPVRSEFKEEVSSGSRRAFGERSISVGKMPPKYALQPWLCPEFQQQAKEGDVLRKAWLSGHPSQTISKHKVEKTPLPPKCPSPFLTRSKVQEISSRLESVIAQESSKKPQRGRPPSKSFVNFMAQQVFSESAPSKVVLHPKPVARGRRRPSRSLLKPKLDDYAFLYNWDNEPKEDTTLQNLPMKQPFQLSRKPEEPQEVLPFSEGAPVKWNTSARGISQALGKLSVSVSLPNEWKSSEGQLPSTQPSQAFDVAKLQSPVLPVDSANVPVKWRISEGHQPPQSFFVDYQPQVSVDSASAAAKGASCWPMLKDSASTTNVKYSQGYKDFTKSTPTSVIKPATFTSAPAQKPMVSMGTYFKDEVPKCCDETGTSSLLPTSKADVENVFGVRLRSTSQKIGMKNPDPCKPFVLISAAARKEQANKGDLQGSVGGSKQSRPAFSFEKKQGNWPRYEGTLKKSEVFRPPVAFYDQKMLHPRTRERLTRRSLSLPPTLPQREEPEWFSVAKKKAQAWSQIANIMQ

TMT signal-to-noise ratio [1]: 224.172 | TMT signal-to-noise ratio [2]: 877.972
Substance: adipsin
